B1: Pre-mRNA-processing factor 19 (Saccharomyces cerevisiae), P32523 (parent)
chain: MLCAISGKVPRRPVLSPKSRTIFEKSLLEQYVKDTGNDPITNEPLSIEEIVEIVPSAQQASLTESTNSATLKANYSIPNLLTSLQNEWDAIMLENFKLRSTLDSLTKKLSTVMYERDAAKLVAAQLLMEKNEDSKDLPKSSQQAVAITREEFLQGLLQSSRDFVARGKLKAPKWPILKNLELLQAQNYSRNIKTFPYKELNKSMYYDKWVCMCRCEDGALHFTQLKDSKTITTITTPNPRTGGEHPAIISRGPCNRLLLLYPGNQITILDSKTNKVLREIEVDSANEIIYMYGHNEVNTEYFIWADNRGTIGFQSYEDDSQYIVHSAKSDVEYSSGVLHKDSLLLALYSPDGILDVYNLSSPDQASSRFPVDEEAKIKEVKFADNGYWMVVECDQTVVCFDLRKDVGTLAYPTYTIPEFKTGTVTYDIDDSGKNMIAYSNESNSLTIYKFDKKTKNWTKDEESALCLQSDTADFTDMDVVCGDGGIAAILKTNDSFNIVALTP
partner: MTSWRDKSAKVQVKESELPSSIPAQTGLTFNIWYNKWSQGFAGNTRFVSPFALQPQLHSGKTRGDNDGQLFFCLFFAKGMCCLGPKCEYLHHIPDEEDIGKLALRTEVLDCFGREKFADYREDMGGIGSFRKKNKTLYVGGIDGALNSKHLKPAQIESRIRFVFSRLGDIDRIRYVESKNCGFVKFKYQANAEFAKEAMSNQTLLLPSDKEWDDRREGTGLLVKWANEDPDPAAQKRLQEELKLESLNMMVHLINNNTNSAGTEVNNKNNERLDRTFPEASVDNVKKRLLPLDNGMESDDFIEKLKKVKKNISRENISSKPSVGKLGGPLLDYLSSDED

Variants of: B1
Conditions: with cwc2_yeast CWC2, Q12046

| Variant | effect of a mutation on the interaction |
| --- | --- |
| D341A | decreasing interaction |
| Y387A | decreasing interaction |
| R403A | disrupting interaction |
| R403A;K404A | disrupting interaction |
| K404A | decreasing interaction |
